Measured values: paper PMC7712654, “Docking of acetyl-CoA carboxylase to the plastid envelope membrane attenuates fatty acid production in plants” (Nature Communications, 2020)

Target: T1, α-CT coiled-coil domain fused with HIS tag (α-CT-His), fluorescently labeled (Arabidopsis thaliana, fluorescently labeled using His-tag labeling kit (NanoTemper, MO-L008))
T1 construct: α-carboxyltransferase (α-CT), Arabidopsis thaliana, At2g38040, C-terminus / coiled-coil domain; also called C-terminus of α-CT; labeled α-CT coiled-coil domain; source: expressed in Luria Broth with IPTG (pET30a), purified on nickel agarose resin
Experiment: MST; 100 nM α-CT-His labeled with His-tag labeling kit, mixed with serial dilutions of CTI in PBS buffer; 100% LED power, high MST power, NanoTemper Monolith NT.115
Conditions: both partners purified

B1: coiled-coil domain of CTI1 fused with HIS tag (domain or fragment)
chain: PQISKAIAGADRKDLMRKLPKFIYDEEKALEKTRKVLAEKIAQLNSAIDDVSSQLKSEDTPNGAALSTDEIEATA
fold higher affinity than CTI2 (from KD values): 100 fold | fold higher affinity than CTI3 (from KD values): 10 fold
